Data reported in the DeepSol protein solubility set.

Assay: soluble on expression in E. coli; label from the status in PepcDB or PDB records

| Sequence | soluble on expression in E. coli |
| --- | --- |
| MIAARQVSKPIADAVLRYGKDHPVFRNKLLLPIGRGLVRFTSRLRMKRLGLGEPISQAPISESAALEQASDFVQQLVLFSYSVGVFAGYYFYTKMTTPESLKIEDYEEFKQQQERAIKELRLQVESLEQRLAAQQKRNFFSQLGFSKENGDESPPKPSQQAPPPEKPSEEKKPATESLKQRFQRISSLPIDAAASLILDDEEYLVVRRGSSVGIELSVNFAARGDRLRYRIPSPKLRESCAQMALKEAACHVIGAKDRSRFRYVNS | not soluble |
| MIALFSVLIAFLTPQANAVISGELNCTTYNGTAFVYTPSATACSNAISDSSCAALYPASDPATGYPAPGNDVERPFACYTTATPTPAPVVPDMRSAALKNCARTCGLCCKTADFDCPNVQFPRLTCSTITNEQCRSSVWRTIIATDCPSACGFCNQGGCVDGVMDCANDLSICNSVGMQEFVNQYCQRTCNRCSSSTAATGTGGSCGGRYIADSSTACAAWKLNGFCTNTFYTAAQRRSYCATTCSLC | not soluble |
| MIAMDIREIGLRLVGEAIKAADPYRAVLNAVKVSDDKIIVQGKEFEIKGKVYVIALGKAACEMARAIEDILDVEDGVAVTKYGYGKELKRIKVIEAGHPIPDEKSILGAKEALSILNRARENDIVFILISGGGSALFELPEEGISLEDLKLTTDLLLKSGAKIHEINTVRKHISKVKGGKLAKMIKGTGIVLIISDVVGDNLEAIASGPTVKDPTTFEDAKRILELYDIWEKVPESVRLHIERGLRGEVEETLKEDLPNVHNFLIASNSISCEAIAREAQRLGFKAYIMTTTLEGEAKDAGLFIGSIVQEIAERGRPFEPPVVLVFGGETTVTIEGKGGKGGPNQEIALSATRKISDLEALIVAFDTDGTDGPTDAAGGIVDGTTYKKLREKGIDVEKVLKEHNSYEALKKVGGLLFTGPTGTNVNSIVIAIVTSKRGRT | soluble |
| MIAQLQKSLIQQNSTFEKKNNVEVAPIAKISLKDRLASLNNSAEQWKSRPERQPAVQQRRTSANVLQDLPIFQRAQQLHQQQQRPQSFPVVQEKPCDITSGLKKFFGSNPTTSGASSSLPKISEITASNDIDLDAISSKATPVLKTVTRPRAPNRKKSDKSSTFDERIRLDAVKIDEEAFAVVEEEPEKLETQEQAIAAIQGAKQLLKSPTKVSPYPDVMLIQVRGSKNVDVRLVAPAMSSVHEVACFVVVHQKHLMKYEGLYSNILEKTKASQLCIEILGKSDLNCTAESIVTVTGASRSTLSKLLFCSENSESSSENNNYHQASSVEPFETTVAKLNLVLRIAGDNTAETCSRRERLSYEIMKPSEVLIFDFGSEIYVWTGRYSNKVSSAYAQEYAKQLMKKPVKNGKFILGDAESIDQDGRPEWTLSRKIHQGVLDTLFKAKFSDWPETREVLTTCKPRALISKKNPEVKTYEDVKVVNQDDEVADLVERMLQEQELDPILVLEDQEIDRKIHDVISEDRSLWVLRGEVLQSIEEFTEHFDSRRCYVLRWKYRIQKSGVRRIKTGKEEERETGRSRIAFWYWLGEHTTPKQHGLCALRIKEIDRDNSPRIRIADGNEPALFLALFDGKFMVSSDISEMKPLRRYVVIGANSRETSLREIDDLNSPLRSHAAYIEVEKDILGPSSVVCGANCTEDQVHFVLAHAEYMRQKAGVKGNSAEIEVEGDKKSRSWVNSNGRKRAMRVWRLFDNESEQVNHLSGHKNCAFTFSQQVLKETILIDVGDALWLWSEEVITTFALKVAEKYWKDRSGPAKVVYKGAEPEQFKGLFMKWEMFEVEDDKPSDPPRDVSDLLKERCRTFSLEELKERTSLPAGMDMRRLESYLTDDDFMKVFKIERSEFYAQKTWKQNDARKRVGLF | not soluble |
| MIATPNILAPLHDILPLTKGEARISFIGSRSFLLEAPGEFDLPAQRWIWALSQSVSNWPDVAEIIPGMTNLLTIFKETPDDPDSVVGRLRDAWNSAQSLDLTGKTIEIPVHYGGEYATDLAAICDFSGLSDREVVRLHHEATYRVFALGSAPGFGYLHGLDPRIYMPRKTVPSIRMEKGCVTIGGMQTGVAMLTGPNGWNSIGYADLQMFDPESSVPALMAPGDIVRFVPARIELLEHHHHHH | not soluble |
| MIAVVIPAHNEARRLGRCLRAVLVAARQAQQAGLHVEVLVVLDRCSDGSAAVARRFGVHTLEVDAGNVGMARRVGAAHMVERGATWLACTDADSRVPAHWLLSQLACSAEVVCGTVHVEYWQPWQTAALRKLYQSRYQACEGHRHVHGANLGVCADAYERVGGFQPLAAHEDVQLVSDLQASGAQIVWTARHSVATSSRRDSRAREGFGDYLAGLQAQSLEHHHHHH | not soluble |
| MICLDCDDLFDTWRLQARWLLSHEIDPSQVSWKSPDAADLFGSEEQYPEQSGPFQARVPLELLQLLQSTSRYRGEQRWSLLYEVLWRVTHGDRTAMMAGDKLGSELHRRLKAVRREAHHLHAFLRFVALPPADNDAAIMRPQYVAWHEPAHDILHSASEHFIGRMGQHRWMIATPQDGVYYDGKQLIHERRCPEAWQTMARQVEDPHGELWLTYYSHIFNPARLNPKVMEGHFPSRFWKNLPE | not soluble |
| MIDFNQLDDLARRLSDLVPPGLRQSREELQSTFKGALQAGLGKLDLVTREEFDVQRAVLLRTREKLDALEQTVAALEARSGNAPPTSPTP | not soluble |
| MIDHQHLRLFQFCDSQFPTGAFSHSFGLETYIQRETVHDTETFIKWLHLFINEQLTYSDGIAMRIVYHALINNDKDKILDINQKLFVQNLPKETRIGAKQMGTRMVKLALDLYDSEWIQWYYNQMKNNKIKLHPAVCFTMLGHFLGVDVESIIDYYLYQNISSLTQNAVRAIPLGQTAGQQVVTEMIAHIEKTRNHILELDEIDFGMTAPGLELNQMEHENVHVRIFISLEHHHHHH | not soluble |
| MIDLLQADGNALPSAVKLAYSPASKTFESYRVMTQVHTNDATKKVIVKLADTPQLTDVLNSTVQMPISVSWGGQVLSTTAKEFEAAALGYSASGVNGVSSSQELVISAAPKTAGTAPTAGNYSGVVSLVMTLGSDNKQVEKNITVTASVDPVIDLLQADGNALPSAVKLAYSPASKTFESYRVMTQVHTNDATKKVIVKLADTPQLTDVLNSTVQMPISVSWGGQVLSTTAKEFEAAALGYSASGVNGVSSSQELVISAAPKTAGTAPTAGNYSGVVSLVMTLGSDNKQVEKNITVTASVDPVIDLLQADGNALPSAVKLAYSPASKTFESYRVMTQVHTNDATKKVIVKLADTPQLTDVLNSTVQMPISVSWGGQVLSTTAKEFEAAALGYSASGVNGVSSSQELVISAAPKTAGTAPTAGNYSGVVSLVMTLGSDNKQVEKNITVTASVDPVILEHHHHHH | soluble |
| MIDLYFAPTPNGHKITLFLEEAELDYRLIKVDLGKGGQFRPEFLRISPNNKIPAIVDHSPADGGEPLSLFESGAILLYLAEKTGLFLSHETRERAATLQWLFWQVGGLGPMLGQNHHFNHAAPQTIPYAIERYQVETQRLYHVLNKRLENSPWLGGENYSIADIACWPWVNAWTRQRIDLAMYPAVKNWHERIRSRPATGQALLKAQLGDERSDS | soluble |
| MIDMALTDDIILLGQVPLFAGFSDDQLRLIAFGAERRRVSAGQILFREHSPAECAFAVTSGHFELFTAGRDGKPLLQATPGKGALLSELALFTLCERKFTAVAVEDSEVIRITRILFHRLVEEFPEVADIVSARIRDNIAALAAGAARLQNRFV | not soluble |
| MIDMTMKVGFIGLGIMGKPMSKNLLKAGYSLVVADRNPEAIADVIAAGAETASTAKAIAEQCDVIITMLPNSPHVKEVALGENGIIEGAKPGTVLIDMSSIAPLASREISEALKAKGIDMLDAPVSGGEPKAIDGTLSVMVGGDKAIFDKYYDLMKAMAGSVVHTGEIGAGNVTKLANQVIVALNIAAMSEALTLATKAGVNPDLVYQAIRGGLAGSTVLDAKAPMVMDRNFKPGFRIDLHIKDLANALDTSHGVGAQLPLTAAVMEMMQALRADGLGTADHSALACYYEKLAKVEVTR | not soluble |
| MIDTTVFQNKTAVYYTLGCKLNFSETSTIGKILREAGVRTARKGEKADICVVNTCSVTEMADKKCRQAIHRLVKQHPGAFVVVTGCYAQLKPGDVAKIKGVDVVLGAEQKGDLLQYLGDLHKHEEGEAFTTTTKDIRSFSPSCSRGDRTRFFLKVQDGCDYFCSYCTIPFARGRSRNGTVASMVEQARQAAAEGGKEIVLTGVNIGDFGKTTGETFFDLVKALDQVEGIERYRISSIEPNLLTDEIIEFVSRSRRFMPHFHIPLQSGCDEVLKLMRRRYDTALFASKVKKIKEVMPDAFIGVDVIVGTRGETEEYFEQAYQFISGLDVTQLHVFSYSERPGTQALKIDYVVSPEEKHQRSQRLLTLSDEKTRAFYTRHIGQTMQVLMEKSKAGTPMHGFTANYIRVEVENDESLDNQMINVRLGEFNEDMTALKGTILMNYEV | not soluble |
| MIDTVSVVLFSKKSHIKIARSVLRDFLQMHESSDSLIVDMEIVLGEILANVIKHTYKNDETKRIIVSYTLKDEVFHMLVRDFGPPVDPTRLKPMPPDLENPREGGYGFYIISRVTDEFRVRPLRNGNLTVVKKKLR | soluble |
| MIDVKSIILIVLDGLGDRPGEILGYRTPLQAAYHPNMNRMASLGMTGLMHPISPGIRSGSDTSHMSLLGYDPRVYYQGRGPFEALGLHMDMKPGDLAFRANFATNRDGKIIDRRAGRINAGNDQLASAISIDIGNYKFRVKSGVEHRAALVVSGPNLSDKISDSDPHSEGKPPEPIRPLDPSADSTAKIMNEYLKRIREILRDHPVNVEREKNGQIPGNELLIRSAGKVPDIPSFQEKNGITGACVVGSPWLKGLCRLLGMAVIDVPGAAGTINSNYTGKIKTAIDASKRYDFVLVNIKATDVAGHDGDYELKRRVIEDIDIAMEPLLGQSDRIVVAITGDHSTPCSVKDHSGDPVPIVFYTDGIYSDDVKLFDEVSAMKGALRITTQDVLNILMEMAGRAEKFGS | not soluble |
| MIEFRQVSKTFNKKKQKIDALKDVSFTVNRNDIFGVIGYSGAGKSTLVRLVNHLEAASNGQVIVDGHDITNYSDKMMRDIKKDIGMIFQHFNLLNSATVFKNVAMPLILSKKSKTEIKQRVTEMLEFVGLSDKKDQFPDELSGGQKQRVAIARALVTNPKILLCDEATSALDPATTASILTLLKNVNQTFGITIMMITHEMRVIKDICNRVAVMEKGKVVETGTVKEVFSHPKTTIAQNFVSTVIQTEPSTSLIRRLNDEQVGDFKDYKIFVEETQVTQPIINDLIQICGREVKILFSSMSEIQGNTVCYMWLRFNMDQQFEDTAINQYFKEKNIQFEEVH | not soluble |
| MIEFSHVSKLFGAQKAVNDLNLNFQEGSFSVLIGTSGSGKSTTLKMINRLVEHDSGEIRFAGEEIRSLPVLELRRRMGYAIQSIGLFPHWSVAQNIATVPQLQKWSRARIDDRIDELMALLGLESNLRERYPHQLSGGQQQRVGVARALAADPQVLLMDEPFGALDPVTRGALQQEMTRIHRLLGRTIVLVTHDIDEALRLAEHLVLMDHGEVVQQGNPLTMLTRPANDFVRQFFGRSELGVRLLSLRSVADYVRREERADGEALAEEMTLRDALSLFVARGCEVLPVVNMQGQPCGTLHFQDLLVEA | soluble |
| MIEIESRELADIPVLHAYPVGQKDTPLPCVIFYHGFTSSSLVYSYFAVALAQAGLRVIMPDAPDHGSRFSGDEARRLNQFWQILLQSMQEFTTLRAAIAEENWLLDDRLAVGGASMGAMTALGITARHPTVKCTASMMGSGYFTSLARSLFPPLIPETAAQQNEFNKIVAPLAEWEATNHLEQLGDRPLLLWHGLDDDVVPADESLRLQQALSETGRDKLLTCSWQPGVRHRITPEALDAAVTFFRQHL | not soluble |
| MIEKKKNRSKLKREAILAAAKKAYQDDGVQNTSMDKLASLAQVSKRTVYNHFSSKEALVMELLSDLWQNSMADIDIQFSENVSIQDQLERLLLAELNVIGAQSYLDLAKVAFGHFFYKPDELQLQVEKMAEQETALSRWLQLMMDTKKLTIEDKHKAGVQLHSLLKGSAFWPQLVGMRAVLSSEEKEQLVTETADMFLSRYLKR | not soluble |
